Measured values from patent US20110117658A1 (published 2011).
Bridges are numbered along the chain shown (N, C = ends). Where no end group is shown, it is not given here. [ ]: non-standard residue; d: D form. Gla = N[C@@H](CC(C(=O)O)C(=O)O)C(=O)O

Experiments:
[1] = biological target: the molecule itself; assay: sedimentation equilibrium, monomer-dimer equilibrium model, in the absence of calcium; extrapolated dimer dissociation constant
From the text: (§1) The hydroxyapatite lattice binding mode represented by the best solution presupposes that osteocalcin engages hydroxyapatite with the acidic Ca²⁺-coordinating surface as a monomer. In the crystal structure of porcine osteocalcin, however, the five Ca²⁺ ions are sandwiched between two crystallographically related protein molecules. If overly stable, this dimeric state could present an impediment to hydroxyapatite binding. To investigate whether porcine osteocalcin exists as a monomer or dimer in solution, sedimentation equilibrium analysis in the presence and absence of 10 mM CaCl₂ was carried out. In both cases, the sedimentation equilibrium data were best fitted to a monomer-dimer equilibrium model (FIG. 6). […] Theses Kd values are 2-3 orders of magnitude higher than the concentration of osteocalcin in human serum […],³¹ showing that osteocalcin exists as a monomer in vivo.

[2] = biological target: the molecule itself; assay: sedimentation equilibrium, monomer-dimer equilibrium model, in the presence of 10 mM CaCl2; extrapolated dimer dissociation constant
From the text: as §1

B1: porcine osteocalcin (other)
chain: YLDHGLGAPAPYPDPL[Gla]PRR[Gla]VC[Gla]LNPDCDELADHIGFQEAYRRFYGIA
modifications: disulfide 23-29; not fully specified
notes: the entries describe its self-association into a dimer; In the crystal only residues 13-49 are ordered (residues 1 to 12 missing from the model); also called pOC; POC13-49 (part seen in the crystal structure)
Kd [1]: 800 µM | Kd [2]: 200 µM
